The results in this text go back to publication PMC6423418 (Human Molecular Genetics, 2018).

“And” between values parts separate entries of the source, which are not always exact repeats. Equal entries are not always repeated.

Data set [1] deals with the molecule itself. Kind of data set: negative-stain single-particle electron microscopy.
Data set [2] deals with the molecule itself. Kind of data set: negative-stain single-particle electron microscopy. This is another data set of the same source.

B1: Wild-type TWINKLE lacking the mitochondrial targeting sequence (residues 1-42) (enzyme, human, UniProt Q96RR1 43-684, looked up)
chain: ETLQALDMPVLPVTATEIRQYLRGHGIPFQDGHSCLRALSPFAESSQLKGQTGVTTSFSLFIDKTTGHFLCMTSLAEGSWEDFQASVEGRGDGAREGFLLSKAPEFEDSEEVRRIWNRAIPLWELPDQEEVQLADTMFGLTKVTDDTLKRFSVRYLRPARSLVFPWFSPGGSGLRGLKLLEAKCQGDGVSYEETTIPRPSAYHNLFGLPLISRRDAEVVLTSRELDSLALNQSTGLPTLTLPRGTTCLPPALLPYLEQFRRIVFWLGDDLRSWEAAKLFARKLNPKRCFLVRPGDQQPRPLEALNGGFNLSRILRTALPAWHKSIVSFRQLREEVLGELSNVEQAAGLRWSRFPDLNRILKGHRKGELTVFTGPTGSGKTTFISEYALDLCSQGVNTLWGSFEISNVRLARVMLTQFAEGRLEDQLDKYDHWADRFEDLPLYFMTFHGQQSIRTVIDTMQHAVYVYDICHVIIDNLQFMMGHEQLSTDRIAAQDYIIGVFRKFATDNNCHVTLVIHPRKEDDDKELQTASIFGSAKASQEADNVLILQDRKLVTGPGKRYLQVSKNRFDGDVGVFPLEFNKNSLTFSIPPKNKARLKKIKDDTGPVAKKPSSGKKGATTQNSEICSGQAPTPDQPDTSKRSK
By stoichiometry N is commonly meant a count of units in the complex or per binding partner. On to B1, for which, in data set [1], the “stoichiometry N” value is 6 and 7. Besides, in data set [2], the “oligomeric state (%), heptamer” value is 41.1% and the “oligomeric state (%), hexamer” value was determined as 58.9%.

B2: P335L TWINKLE (enzyme, human, UniProt Q96RR1 43-684, looked up)
chain: ETLQALDMPVLPVTATEIRQYLRGHGIPFQDGHSCLRALSPFAESSQLKGQTGVTTSFSLFIDKTTGHFLCMTSLAEGSWEDFQASVEGRGDGAREGFLLSKAPEFEDSEEVRRIWNRAIPLWELPDQEEVQLADTMFGLTKVTDDTLKRFSVRYLRPARSLVFPWFSPGGSGLRGLKLLEAKCQGDGVSYEETTIPRPSAYHNLFGLPLISRRDAEVVLTSRELDSLALNQSTGLPTLTLPRGTTCLPPALLPYLEQFRRIVFWLGDDLRSWEAAKLFARKLNPKRCFLVRLGDQQPRPLEALNGGFNLSRILRTALPAWHKSIVSFRQLREEVLGELSNVEQAAGLRWSRFPDLNRILKGHRKGELTVFTGPTGSGKTTFISEYALDLCSQGVNTLWGSFEISNVRLARVMLTQFAEGRLEDQLDKYDHWADRFEDLPLYFMTFHGQQSIRTVIDTMQHAVYVYDICHVIIDNLQFMMGHEQLSTDRIAAQDYIIGVFRKFATDNNCHVTLVIHPRKEDDDKELQTASIFGSAKASQEADNVLILQDRKLVTGPGKRYLQVSKNRFDGDVGVFPLEFNKNSLTFSIPPKNKARLKKIKDDTGPVAKKPSSGKKGATTQNSEICSGQAPTPDQPDTSKRSK
With B2, in data set [1], the “stoichiometry N” value was 6 and 7 and 8 and 9. Also, in data set [2], the “oligomeric state (%), broken ring” value came to 6.4%; the “oligomeric state (%), heptamer” value was determined as 72.3%; the “oligomeric state (%), hexamer” value was 4.7%.

B3: W315L TWINKLE (enzyme, human, UniProt Q96RR1 43-684, looked up)
chain: ETLQALDMPVLPVTATEIRQYLRGHGIPFQDGHSCLRALSPFAESSQLKGQTGVTTSFSLFIDKTTGHFLCMTSLAEGSWEDFQASVEGRGDGAREGFLLSKAPEFEDSEEVRRIWNRAIPLWELPDQEEVQLADTMFGLTKVTDDTLKRFSVRYLRPARSLVFPWFSPGGSGLRGLKLLEAKCQGDGVSYEETTIPRPSAYHNLFGLPLISRRDAEVVLTSRELDSLALNQSTGLPTLTLPRGTTCLPPALLPYLEQFRRIVFWLGDDLRSLEAAKLFARKLNPKRCFLVRPGDQQPRPLEALNGGFNLSRILRTALPAWHKSIVSFRQLREEVLGELSNVEQAAGLRWSRFPDLNRILKGHRKGELTVFTGPTGSGKTTFISEYALDLCSQGVNTLWGSFEISNVRLARVMLTQFAEGRLEDQLDKYDHWADRFEDLPLYFMTFHGQQSIRTVIDTMQHAVYVYDICHVIIDNLQFMMGHEQLSTDRIAAQDYIIGVFRKFATDNNCHVTLVIHPRKEDDDKELQTASIFGSAKASQEADNVLILQDRKLVTGPGKRYLQVSKNRFDGDVGVFPLEFNKNSLTFSIPPKNKARLKKIKDDTGPVAKKPSSGKKGATTQNSEICSGQAPTPDQPDTSKRSK
For the protein B3, the “stoichiometry N” value in data set [1] stood at 7. Moreover, in data set [2], the “oligomeric state (%), broken ring” value was 12.9% and the “oligomeric state (%), heptamer” value came to 87.1%.

B4: L381P TWINKLE (enzyme, human, UniProt Q96RR1 43-684, looked up)
chain: ETLQALDMPVLPVTATEIRQYLRGHGIPFQDGHSCLRALSPFAESSQLKGQTGVTTSFSLFIDKTTGHFLCMTSLAEGSWEDFQASVEGRGDGAREGFLLSKAPEFEDSEEVRRIWNRAIPLWELPDQEEVQLADTMFGLTKVTDDTLKRFSVRYLRPARSLVFPWFSPGGSGLRGLKLLEAKCQGDGVSYEETTIPRPSAYHNLFGLPLISRRDAEVVLTSRELDSLALNQSTGLPTLTLPRGTTCLPPALLPYLEQFRRIVFWLGDDLRSWEAAKLFARKLNPKRCFLVRPGDQQPRPLEALNGGFNLSRILRTALPAWHKSIVSFRQLREEVLGEPSNVEQAAGLRWSRFPDLNRILKGHRKGELTVFTGPTGSGKTTFISEYALDLCSQGVNTLWGSFEISNVRLARVMLTQFAEGRLEDQLDKYDHWADRFEDLPLYFMTFHGQQSIRTVIDTMQHAVYVYDICHVIIDNLQFMMGHEQLSTDRIAAQDYIIGVFRKFATDNNCHVTLVIHPRKEDDDKELQTASIFGSAKASQEADNVLILQDRKLVTGPGKRYLQVSKNRFDGDVGVFPLEFNKNSLTFSIPPKNKARLKKIKDDTGPVAKKPSSGKKGATTQNSEICSGQAPTPDQPDTSKRSK
With B4, the “stoichiometry N” value in data set [1] was 6 and 7 and 5. For the same protein, in data set [2], the “oligomeric state (%), broken ring” value came out at 26.9%; the “oligomeric state (%), heptamer” value was 28.6%; the “oligomeric state (%), hexamer” value stood at 33%.

B5: R334Q TWINKLE (enzyme, human, UniProt Q96RR1 43-684, looked up)
chain: ETLQALDMPVLPVTATEIRQYLRGHGIPFQDGHSCLRALSPFAESSQLKGQTGVTTSFSLFIDKTTGHFLCMTSLAEGSWEDFQASVEGRGDGAREGFLLSKAPEFEDSEEVRRIWNRAIPLWELPDQEEVQLADTMFGLTKVTDDTLKRFSVRYLRPARSLVFPWFSPGGSGLRGLKLLEAKCQGDGVSYEETTIPRPSAYHNLFGLPLISRRDAEVVLTSRELDSLALNQSTGLPTLTLPRGTTCLPPALLPYLEQFRRIVFWLGDDLRSWEAAKLFARKLNPKRCFLVQPGDQQPRPLEALNGGFNLSRILRTALPAWHKSIVSFRQLREEVLGELSNVEQAAGLRWSRFPDLNRILKGHRKGELTVFTGPTGSGKTTFISEYALDLCSQGVNTLWGSFEISNVRLARVMLTQFAEGRLEDQLDKYDHWADRFEDLPLYFMTFHGQQSIRTVIDTMQHAVYVYDICHVIIDNLQFMMGHEQLSTDRIAAQDYIIGVFRKFATDNNCHVTLVIHPRKEDDDKELQTASIFGSAKASQEADNVLILQDRKLVTGPGKRYLQVSKNRFDGDVGVFPLEFNKNSLTFSIPPKNKARLKKIKDDTGPVAKKPSSGKKGATTQNSEICSGQAPTPDQPDTSKRSK
For B5, the “stoichiometry N” value in data set [1] is 7 and 6. Further, in data set [2], the “oligomeric state (%), broken ring” value came to 8.3%; the “oligomeric state (%), heptamer” value worked out at 55.1%; the “oligomeric state (%), hexamer” value came out at 36.6%.

B6: S369P TWINKLE (enzyme, human, UniProt Q96RR1 43-684, looked up)
chain: ETLQALDMPVLPVTATEIRQYLRGHGIPFQDGHSCLRALSPFAESSQLKGQTGVTTSFSLFIDKTTGHFLCMTSLAEGSWEDFQASVEGRGDGAREGFLLSKAPEFEDSEEVRRIWNRAIPLWELPDQEEVQLADTMFGLTKVTDDTLKRFSVRYLRPARSLVFPWFSPGGSGLRGLKLLEAKCQGDGVSYEETTIPRPSAYHNLFGLPLISRRDAEVVLTSRELDSLALNQSTGLPTLTLPRGTTCLPPALLPYLEQFRRIVFWLGDDLRSWEAAKLFARKLNPKRCFLVRPGDQQPRPLEALNGGFNLSRILRTALPAWHKSIVPFRQLREEVLGELSNVEQAAGLRWSRFPDLNRILKGHRKGELTVFTGPTGSGKTTFISEYALDLCSQGVNTLWGSFEISNVRLARVMLTQFAEGRLEDQLDKYDHWADRFEDLPLYFMTFHGQQSIRTVIDTMQHAVYVYDICHVIIDNLQFMMGHEQLSTDRIAAQDYIIGVFRKFATDNNCHVTLVIHPRKEDDDKELQTASIFGSAKASQEADNVLILQDRKLVTGPGKRYLQVSKNRFDGDVGVFPLEFNKNSLTFSIPPKNKARLKKIKDDTGPVAKKPSSGKKGATTQNSEICSGQAPTPDQPDTSKRSK
In the case of B6, the “stoichiometry N” value in data set [1] is 6 and 7. Moreover, in data set [2], the “oligomeric state (%), broken ring” value amounted to 45.2%; the “oligomeric state (%), heptamer” value came to 41.6%; the “oligomeric state (%), hexamer” value was 13.2%.
